According to patent US20110059889A1 (SYNTONIX PHARMACEUTICALS, published 2011):
Like-named read-outs stand apart in the source and are kept apart here. One block for each binder: values may come before it. Bridge positions count the residues as written; N and C are the ends. Square brackets hold non-standard residues; d marks the D form. Ends that are not written are not given here. Phe(F5) = N[C@@H](Cc1c(F)c(F)c(F)c(F)c1F)C(=O)O; Phe(4-NH2) = Nc1ccc(C[C@H](N)C(=O)O)cc1; Phe(3-Me) = Cc1cccc(C[C@H](N)C(=O)O)c1; Phe(4-Me) = Cc1ccc(C[C@H](N)C(=O)O)cc1; NMeL = CN[C@@H](CC(C)C)C(=O)O; Pen = CC(C)(S)[C@H](N)C(=O)O; hCys = N[C@@H](CCS)C(=O)O; Sar = CNCC(=O)O

Legend:
[1] = target: T1, soluble human FcRn (shFcRn) (human, UniProt P55899 24-297; P61769 21-119); test: SPR pH 7.4
T1 construct: Biotinylated for the ELISA, amine-coupled to a CM5 chip for SPR; also called biotinylated shFcRn
Experimental: (§1) The following steps were performed to cross-link soluble human or cynomolgus FcRn to the dextran surface of a CM5 sensor chip (Biacore AB, Uppsala, Sweden) by an amine coupling reaction involving 1-ethyl-(3-dimethylaminopropyl)-carbodiimide hydrochloride (EDC) (Biacore AB, Uppsala, Sweden) and N-hydroxysuccinimide (NHS) (Biacore AB, Uppsala, Sweden) as recommended by Biacore (BIAapplications Handbook, version AB, section 4.2, Biacore AB, Uppsala, Sweden). […] Residual sites on the FcRn flow cell were blocked with 1 M ethanolamine hydrochloride pH 8.5 (Biacore AB, Uppsala, Sweden). A control flow cell was blocked with ethanolamine for reference subtraction. For analysis of the monomeric peptides, FcRn was coated to a final density of 4000-5000 response units (RU). For analysis of the peptide dimers, FcRn was coated to a density of 2000-2500 RU. All SPR measurements were performed using a BIACORE 3000 Instrument (Biacore AB Uppsala, Sweden). For measurements done at either pH 6 or pH 7.4, experiments were performed in 50 mM phosphate, 100 mM sodium chloride, 0.01% surfactant P20 (Biacore AB, Uppsala, Sweden).
(§2) Ten, 2-fold dilutions of the peptide were injected over the FcRn-CM5 chip at a rate of 20 μl/min for 2 min. The peptide was dissociated from the chip for 2.5 minutes with buffer. Any remaining peptide was removed from the chip with a 30 second injection of HBS-P buffer (Biacore AB, Uppsala, Sweden) at a rate of 30 μl/min. Sensorgrams were generated and analyzed using BiaEval software version 3.1 (Biacore AB, Uppsala, Sweden). The equilibrium RU observed for each injection was plotted against concentration. The equilibrium KD values were derived by analysis of the plots using the steady state affinity model included in the BiaEval software.

[2] = target: T1, soluble human FcRn (shFcRn); test: IgG competition ELISA
Experimental: (§3) The wells were coated with 100 μl/well of 1 μg/ml biotinylated-shFcRn in Buffer A. The plate was sealed and incubated at 37° C. for 2 hours. Afterwards, the plate was washed with 200 μl/well of Buffer B (Buffer B: 100 mM MES pH 6, 150 mM NaCl, 0.5% BSA IgG-free (Jackson ImmunoResearch, West Grove, Pa.), 0.05% Tween-20). […] To allow for mixing, the plate was rocked for 2 minutes, sealed and incubated at 37° C. for 2 hours. […] The plate was covered, incubated for 30 minutes at room temperature and washed 4 times with 200 μl/well of ice-cold buffer B. SureBlue TMB substrate solution (100 μl/well, KPL, Gaithersburg, Md.) was added and the plate was allowed to incubate at room temperature until color developed, which took 5 to 10 minutes. Once color developed, 100 μl/well of TMB stop solution (KPL, Gaithersburg, Md.) was added and the absorbance was measured at 450 nm. The data was plotted as absorbance vs. peptide concentration to derive the inhibitory concentration 50% (IC₅₀) values.

[3] = target: T1, soluble human FcRn (shFcRn); test: SPR pH 6
Experimental: as §1, §2

[4] = target: T1, soluble human FcRn (shFcRn); test: IgG competition ELISA; remark: listed apart in the source
Experimental: as §3

[5] = target: T1, soluble human FcRn (shFcRn); test: SPR pH 6; remark: listed apart in the source
Experimental: as §1, §2

[6] = target: T1, soluble human FcRn (shFcRn); test: SPR pH 6; remark: listed apart in the source
Experimental: as §1, §2

[7] = target: T1, soluble human FcRn (shFcRn); test: IgG competition ELISA; remark: listed apart in the source
Experimental: as §3

[8] = target: T1, soluble human FcRn (shFcRn); test: SPR pH 6; remark: listed apart in the source
Experimental: as §1, §2

B2: Peptide No. 34 (peptide)
peptide: QRF[Pen]TGHFGGLYP[Pen]NGP-NH2
modifications: disulfide 4-14; N-terminus assumed
SMILES: CC(C)C[C@@H]1NC(=O)CNC(=O)CNC(=O)[C@H](Cc2ccccc2)NC(=O)[C@H](Cc2c[nH]cn2)NC(=O)CNC(=O)[C@H]([C@@H](C)O)NC(=O)[C@@H](NC(=O)[C@H](Cc2ccccc2)NC(=O)[C@H](CCCNC(=N)N)NC(=O)[C@@H](N)CCC(N)=O)C(C)(C)SSC(C)(C)[C@@H](C(=O)N[C@@H](CC(N)=O)C(=O)NCC(=O)N2CCC[C@H]2C(N)=O)NC(=O)[C@@H]2CCCN2C(=O)[C@H](Cc2ccc(O)cc2)NC1=O
- IC50 [4]: 2 µM
- Kd [5]: 0.37 µM

B3: Peptide No. 90 (peptide)
peptide: QRF[Pen]TGH[Phe(4-Me)]GGLYPCNGP-NH2
modifications: disulfide 4-14; N-terminus assumed
SMILES: Cc1ccc(C[C@@H]2NC(=O)[C@H](Cc3c[nH]cn3)NC(=O)CNC(=O)[C@H]([C@@H](C)O)NC(=O)[C@@H](NC(=O)[C@H](Cc3ccccc3)NC(=O)[C@H](CCCNC(=N)N)NC(=O)[C@@H](N)CCC(N)=O)C(C)(C)SSC[C@@H](C(=O)N[C@@H](CC(N)=O)C(=O)NCC(=O)N3CCC[C@H]3C(N)=O)NC(=O)[C@@H]3CCCN3C(=O)[C@H](Cc3ccc(O)cc3)NC(=O)[C@H](CC(C)C)NC(=O)CNC(=O)CNC2=O)cc1
- Kd [6]: 0.2 µM

B4: Peptide No. 62 (peptide)
peptide: QRFCTGHXGGLYPCNGP
modifications: Pen 4; 2-napthylalanine 8; disulfide 4-14; C-terminal amide
- Kd [6]: 11 µM
- IC50 [7]: 90 µM

B5: Peptide No. 89 (peptide)
peptide: QRF[Pen]TGH[Phe(3-Me)]GGLYPCNGP-NH2
modifications: disulfide 4-14; N-terminus assumed
SMILES: Cc1cccc(C[C@@H]2NC(=O)[C@H](Cc3c[nH]cn3)NC(=O)CNC(=O)[C@H]([C@@H](C)O)NC(=O)[C@@H](NC(=O)[C@H](Cc3ccccc3)NC(=O)[C@H](CCCNC(=N)N)NC(=O)[C@@H](N)CCC(N)=O)C(C)(C)SSC[C@@H](C(=O)N[C@@H](CC(N)=O)C(=O)NCC(=O)N3CCC[C@H]3C(N)=O)NC(=O)[C@@H]3CCCN3C(=O)[C@H](Cc3ccc(O)cc3)NC(=O)[C@H](CC(C)C)NC(=O)CNC(=O)CNC2=O)c1
- Kd [6]: 0.67 µM
- IC50 [7]: 4.1 µM

B7: Peptide No. 41 (peptide)
peptide: QRF[Pen]TGHFG[dR]LYPCNGP-NH2
modifications: disulfide 4-14; N-terminus assumed
SMILES: CC(C)C[C@@H]1NC(=O)[C@@H](CCCNC(=N)N)NC(=O)CNC(=O)[C@H](Cc2ccccc2)NC(=O)[C@H](Cc2c[nH]cn2)NC(=O)CNC(=O)[C@H]([C@@H](C)O)NC(=O)[C@@H](NC(=O)[C@H](Cc2ccccc2)NC(=O)[C@H](CCCNC(=N)N)NC(=O)[C@@H](N)CCC(N)=O)C(C)(C)SSC[C@@H](C(=O)N[C@@H](CC(N)=O)C(=O)NCC(=O)N2CCC[C@H]2C(N)=O)NC(=O)[C@@H]2CCCN2C(=O)[C@H](Cc2ccc(O)cc2)NC1=O
- Kd [1]: 8.8 µM
- IC50 [2]: 8.1 µM
- Kd [3]: 0.83 µM

B11: Peptide No. 70 (peptide)
peptide: QRF[hCys]TGHFGGLYP[Pen]NGP-NH2
modifications: disulfide 4-14; N-terminus assumed
SMILES: CC(C)C[C@@H]1NC(=O)CNC(=O)CNC(=O)[C@H](Cc2ccccc2)NC(=O)[C@H](Cc2c[nH]cn2)NC(=O)CNC(=O)[C@H]([C@@H](C)O)NC(=O)[C@@H](NC(=O)[C@H](Cc2ccccc2)NC(=O)[C@H](CCCNC(=N)N)NC(=O)[C@@H](N)CCC(N)=O)CCSSC(C)(C)[C@@H](C(=O)N[C@@H](CC(N)=O)C(=O)NCC(=O)N2CCC[C@H]2C(N)=O)NC(=O)[C@@H]2CCCN2C(=O)[C@H](Cc2ccc(O)cc2)NC1=O
- Kd [5]: 2.1 µM

B12: Peptide No. 27 (peptide)
peptide: QRFCTGHFGGLYP[hCys]NGP-NH2
modifications: disulfide 4-14; N-terminus assumed
SMILES: CC(C)C[C@@H]1NC(=O)CNC(=O)CNC(=O)[C@H](Cc2ccccc2)NC(=O)[C@H](Cc2c[nH]cn2)NC(=O)CNC(=O)[C@H]([C@@H](C)O)NC(=O)[C@@H](NC(=O)[C@H](Cc2ccccc2)NC(=O)[C@H](CCCNC(=N)N)NC(=O)[C@@H](N)CCC(N)=O)CSSCC[C@@H](C(=O)N[C@@H](CC(N)=O)C(=O)NCC(=O)N2CCC[C@H]2C(N)=O)NC(=O)[C@@H]2CCCN2C(=O)[C@H](Cc2ccc(O)cc2)NC1=O
- IC50 [4]: 21 µM
- Kd [5]: 3.9 µM

B15: Peptide No. 57 (peptide)
peptide: QRF[Pen]TGH[Phe(F5)]GGLYPCNGP-NH2
modifications: disulfide 4-14; N-terminus assumed
SMILES: CC(C)C[C@@H]1NC(=O)CNC(=O)CNC(=O)[C@H](Cc2c(F)c(F)c(F)c(F)c2F)NC(=O)[C@H](Cc2c[nH]cn2)NC(=O)CNC(=O)[C@H]([C@@H](C)O)NC(=O)[C@@H](NC(=O)[C@H](Cc2ccccc2)NC(=O)[C@H](CCCNC(=N)N)NC(=O)[C@@H](N)CCC(N)=O)C(C)(C)SSC[C@@H](C(=O)N[C@@H](CC(N)=O)C(=O)NCC(=O)N2CCC[C@H]2C(N)=O)NC(=O)[C@@H]2CCCN2C(=O)[C@H](Cc2ccc(O)cc2)NC1=O
- Kd [6]: 70 µM

The remaining lines, values ahead:

- Kd [1]: 5.3 µM
- IC50 [2]: 2.4 µM
- Kd [3]: 0.48 µM
B1: Peptide No. 46 (peptide)
peptide: QRFCTGHFGXLYPCNGP
modifications: Pen 4; Aib (aminoisobutyric acid) 10; disulfide 4-14; C-terminal amide

- Kd [6]: 1 µM
B6: Peptide No. 55 (peptide)
peptide: QRF[Pen]TGH[Phe(4-NH2)]GGLYPCNGP-NH2
modifications: disulfide 4-14; N-terminus assumed
SMILES: CC(C)C[C@@H]1NC(=O)CNC(=O)CNC(=O)[C@H](Cc2ccc(N)cc2)NC(=O)[C@H](Cc2c[nH]cn2)NC(=O)CNC(=O)[C@H]([C@@H](C)O)NC(=O)[C@@H](NC(=O)[C@H](Cc2ccccc2)NC(=O)[C@H](CCCNC(=N)N)NC(=O)[C@@H](N)CCC(N)=O)C(C)(C)SSC[C@@H](C(=O)N[C@@H](CC(N)=O)C(=O)NCC(=O)N2CCC[C@H]2C(N)=O)NC(=O)[C@@H]2CCCN2C(=O)[C@H](Cc2ccc(O)cc2)NC1=O

- Kd [1]: 4.9 µM
- Kd [3]: 0.58 µM
B8: Peptide No. 47 (peptide)
peptide: QRF[Pen]TGHF[dD]GLYPCNGP-NH2
modifications: disulfide 4-14; N-terminus assumed
SMILES: CC(C)C[C@@H]1NC(=O)CNC(=O)[C@@H](CC(=O)O)NC(=O)[C@H](Cc2ccccc2)NC(=O)[C@H](Cc2c[nH]cn2)NC(=O)CNC(=O)[C@H]([C@@H](C)O)NC(=O)[C@@H](NC(=O)[C@H](Cc2ccccc2)NC(=O)[C@H](CCCNC(=N)N)NC(=O)[C@@H](N)CCC(N)=O)C(C)(C)SSC[C@@H](C(=O)N[C@@H](CC(N)=O)C(=O)NCC(=O)N2CCC[C@H]2C(N)=O)NC(=O)[C@@H]2CCCN2C(=O)[C@H](Cc2ccc(O)cc2)NC1=O

- IC50 [4]: 1.6 µM
- Kd [5]: 0.28 µM
B9: Peptide No. 295 (peptide)
peptide: QRF[Pen]TGHFG[dP]LYP[Pen]NGP-NH2
modifications: disulfide 4-14; N-terminus assumed
SMILES: CC(C)C[C@@H]1NC(=O)[C@H]2CCCN2C(=O)CNC(=O)[C@H](Cc2ccccc2)NC(=O)[C@H](Cc2c[nH]cn2)NC(=O)CNC(=O)[C@H]([C@@H](C)O)NC(=O)[C@@H](NC(=O)[C@H](Cc2ccccc2)NC(=O)[C@H](CCCNC(=N)N)NC(=O)[C@@H](N)CCC(N)=O)C(C)(C)SSC(C)(C)[C@@H](C(=O)N[C@@H](CC(N)=O)C(=O)NCC(=O)N2CCC[C@H]2C(N)=O)NC(=O)[C@@H]2CCCN2C(=O)[C@H](Cc2ccc(O)cc2)NC1=O

- Kd [6]: 19 µM
- IC50 [7]: 60 µM
B10: Peptide No. 59 (peptide)
peptide: QRFCTGHXGGLYPCNGP
modifications: Pen 4; 3-PyridylAla 8; disulfide 4-14; C-terminal amide

- IC50 [4]: 20 µM
- Kd [5]: 3.8 µM
B13: Peptide No. 28 (peptide)
peptide: QRF[hCys]TGHFGGLYP[hCys]NGP-NH2
modifications: disulfide 4-14; N-terminus assumed
SMILES: CC(C)C[C@@H]1NC(=O)CNC(=O)CNC(=O)[C@H](Cc2ccccc2)NC(=O)[C@H](Cc2c[nH]cn2)NC(=O)CNC(=O)[C@H]([C@@H](C)O)NC(=O)[C@@H](NC(=O)[C@H](Cc2ccccc2)NC(=O)[C@H](CCCNC(=N)N)NC(=O)[C@@H](N)CCC(N)=O)CCSSCC[C@@H](C(=O)N[C@@H](CC(N)=O)C(=O)NCC(=O)N2CCC[C@H]2C(N)=O)NC(=O)[C@@H]2CCCN2C(=O)[C@H](Cc2ccc(O)cc2)NC1=O

- Kd [8]: 1.4 µM
B14: Peptide No. 217 (peptide)
peptide: RF[Pen]TGHF[dF][Sar][NMeL]YPC-NH2
modifications: disulfide 3-13; N-terminus assumed
SMILES: CC(C)C[C@H]1C(=O)N[C@@H](Cc2ccc(O)cc2)C(=O)N2CCC[C@H]2C(=O)N[C@H](C(N)=O)CSSC(C)(C)[C@H](NC(=O)[C@H](Cc2ccccc2)NC(=O)[C@@H](N)CCCNC(=N)N)C(=O)N[C@@H]([C@@H](C)O)C(=O)NCC(=O)N[C@@H](Cc2c[nH]cn2)C(=O)N[C@@H](Cc2ccccc2)C(=O)N[C@H](Cc2ccccc2)C(=O)N(C)CC(=O)N1C
